Earlier results as cited in article PMC9902533.

Target: Immunoglobulin E kappa (recombinant, clone AbD18705_hIgE, HCA190) (human) (UniProt P01854+P01834)
Conditions: 10 mM HEPES pH 7.4, 0.05% Tween-20, room temperature (IgE; fibrils and exosomes same buffer); FUS: 50 mM Tris-HCl pH 7.4, 25 mM KCl, 0.02% Tween-20, on-chip …

Chain of Immunoglobulin E kappa (recombinant, clone AbD18705_hIgE, HCA190) (human) (P01854 whole entry, chain 1 of 2, other chains not shown): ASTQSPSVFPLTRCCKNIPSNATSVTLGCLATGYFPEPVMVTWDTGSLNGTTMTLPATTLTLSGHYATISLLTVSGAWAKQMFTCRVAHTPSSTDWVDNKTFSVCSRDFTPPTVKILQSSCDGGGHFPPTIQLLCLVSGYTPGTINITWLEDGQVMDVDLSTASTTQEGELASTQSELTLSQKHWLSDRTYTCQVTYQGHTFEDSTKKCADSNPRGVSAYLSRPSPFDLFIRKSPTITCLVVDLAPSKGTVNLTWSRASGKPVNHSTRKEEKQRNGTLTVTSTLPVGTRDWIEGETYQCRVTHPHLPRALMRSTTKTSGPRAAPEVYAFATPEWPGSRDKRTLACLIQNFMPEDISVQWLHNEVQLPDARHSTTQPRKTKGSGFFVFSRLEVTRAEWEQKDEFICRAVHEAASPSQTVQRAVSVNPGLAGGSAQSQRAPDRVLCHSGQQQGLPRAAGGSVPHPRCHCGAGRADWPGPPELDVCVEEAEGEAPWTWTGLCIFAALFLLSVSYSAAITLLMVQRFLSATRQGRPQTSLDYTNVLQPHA

Q: For “TGGGGCACGTTTATCCGTCCCTCCTAGTGGCGTGCCCC [IgE aptamer]”, which Kd is on record?
A: 50 nM
